Reference: article PMC10968091, “Crystallization of Ethylene Plant Hormone Receptor—Screening for Structure” (Biomolecules, 2024)

B1: ETR1^1-157 mT2 (domain or fragment, Arabidopsis thaliana, UniProt P49333 1-157, looked up)
chain: MEVCNCIEPQWPADELLMKYQYISDFFIAIAYFSIPLELIYFVKKSAVFPYRWVLVQFGAFIVLCGATHLINLWTFTTHSRTVALVMTTAKVLTAVVSCATALMLVHIIPDLLSVKTRELFLKNKAAELDREMGLIRTQEETGRHVRMLTHEIRSTL
notes: Ethylene response 1 (ETR1), Arabidopsis thaliana, residues 1-157 (aa 158-738 removed); transmembrane domain; From pGEX4T-1; also called ETR1^1-157 mT2 10x His; source: E. coli C41(DE3)∆(ompF-acrAB), purified (IMAC); not shown: His10, C-terminal, kept
B2: ETR1^1-316 (domain or fragment, Arabidopsis thaliana, UniProt P49333 1-316, looked up)
chain: MEVCNCIEPQWPADELLMKYQYISDFFIAIAYFSIPLELIYFVKKSAVFPYRWVLVQFGAFIVLCGATHLINLWTFTTHSRTVALVMTTAKVLTAVVSCATALMLVHIIPDLLSVKTRELFLKNKAAELDREMGLIRTQEETGRHVRMLTHEIRSTLDRHTILKTTLVELGRTLALEECALWMPTRTGLELQLSYTLRHQHPVEYTVPIQLPVINQVFGTSRAVKISPNSPVARLRPVSGKYMLGEVVAVRVPLLHLSNFQINDWPELSTKRYALMVLMLPSDSARQWHVHELELVEVVADQVAVALSHAAILEES
notes: From pETEV16b; also called AtETR1^1-316; ETR1 (aa 1-316); source: E. coli C41(DE3)∆(ompF-acrAB), purified (IMAC); not shown: His10, N-terminal, kept
B3: ETR1^1-407 (domain or fragment, Arabidopsis thaliana, UniProt P49333 1-407, looked up)
chain: MEVCNCIEPQWPADELLMKYQYISDFFIAIAYFSIPLELIYFVKKSAVFPYRWVLVQFGAFIVLCGATHLINLWTFTTHSRTVALVMTTAKVLTAVVSCATALMLVHIIPDLLSVKTRELFLKNKAAELDREMGLIRTQEETGRHVRMLTHEIRSTLDRHTILKTTLVELGRTLALEECALWMPTRTGLELQLSYTLRHQHPVEYTVPIQLPVINQVFGTSRAVKISPNSPVARLRPVSGKYMLGEVVAVRVPLLHLSNFQINDWPELSTKRYALMVLMLPSDSARQWHVHELELVEVVADQVAVALSHAAILEESMRARDLLMEQNVALDLARREAETAIRARNDFLAVMNHEMRTPMHAIIALSSLLQETELTPEQRLMVETILKSSNLLATLMNDVLDLSRLED
notes: Ethylene response 1 (ETR1), Arabidopsis thaliana, residues 1-407; From pETEV16b; also called AtETR1^1-407; source: E. coli C41(DE3)∆(ompF-acrAB), purified (IMAC); not shown: His10, N-terminal, kept
B4: ETR2^1-186 mT2 (domain or fragment, Arabidopsis thaliana, UniProt Q0WPQ2 1-186, looked up)
chain: MVKEIASWLLILSMVVFVSPVLAINGGGYPRCNCEDEGNSFWSTENILETQRVSDFLIAVAYFSIPIELLYFVSCSNVPFKWVLFEFIAFIVLCGMTHLLHGWTYSAHPFRLMMAFTVFKMLTALVSCATAITLITLIPLLLKVKVREFMLKKKAHELGREVGLILIKKETGFHVRMLTQEIRKSL
notes: Ethylene response 2 (ETR2), Arabidopsis thaliana, residues 1-186 (aa 187-773 removed); transmembrane domain; From pGEX4T-1; The plasmid name and the methods put mT2 next to the C-terminal 10x His-tag; also called ETR2 (aa 1-186); ETR2^1-186 mT2 10x His; source: E. coli C41(DE3)∆(ompF-acrAB), purified (IMAC); not shown: His10, C-terminal, kept

Target: the molecule itself
Assay: SDS-PAGE and Western blot; IMAC-purified receptor constructs on SDS-PAGE (colloidal Coomassie) and Western blot (anti-GFP-HRP for ETR2^1-186 mT2, anti-His-HRP for the others); SDS-stable dimers seen beside monomers

Binding result, binds:
B1
B2
B3
B4
